Experimental data: publication PMC9769499

Target: T1, CzcR (Pseudomonas aeruginosa PAO1) (UniProt Q9RLJ1)
T1 sequence: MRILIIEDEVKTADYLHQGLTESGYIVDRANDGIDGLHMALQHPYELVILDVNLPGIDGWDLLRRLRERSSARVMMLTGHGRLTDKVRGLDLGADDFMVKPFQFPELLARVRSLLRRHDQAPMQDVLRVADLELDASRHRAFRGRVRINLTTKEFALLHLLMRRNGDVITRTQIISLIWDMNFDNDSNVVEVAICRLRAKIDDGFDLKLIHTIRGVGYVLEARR
Assay: EMSA
Details: Thermo Scientific EMSA kit per manufacturer's instructions; buffer, salt, pH and temperature not stated

“CATCTGCTTCATACCTTGTGTTGTCGTCTTCCCGGAACGCCCCTTCCAGCGCTCTCCGGTATTGGCGGGAACGATGCGCCATCGCTCCCGGCCCGGCGGAAGCCACCTTCGCTTCCGTCACCCGCGCCACGCGCGGTTCTTCCCACGTCCTCA (double strand) [PfleN]” was tested, and the binding was “binds”.

For “CTGACTCATGACTCTTCCTCCAACAGCCGCGGCTTTTTTGACGCCGCCCGGCACTTTGCAGAGGAGTTAGCAACAAGGGTGCCAAGTCGGCCCCAAGGCCCGGCATCGGCGTTCGCCGCCAATGCCCGCGACCGCTGCAGGGTCCGTCCCTGCTCCGGTTATCGGCAGGCGCGCACGCTCGAACAG (double strand) [PfliE]”, the binding was “no binding”.

In the case of “GACGTACAGCATCTTGTCCATCGAATCCTCCAGGCACCGGCACAATCCGCCGGGCTTTCTTGCAGGTTATCCAGCAAGCGCCGTGCCAGAATTCGAAAAAACAATTAATACATTGATTTAAAAGGATTTTATAAAACAGAAAGCCTCCTTTCGGAGGCTTCGGGGGCAA (double strand) [PflgF]”, the binding is reported as “binds”.

With “GCAACCGTTCGGAACATTCTTCCCGTCGGGGGTAGGCGAGCGACTTGCCCTGTGGAATAATACTGTCTACTTATACAGTTGTTCGTGGCCGTCCGGCCGCCCTGACTTCGCGAGGACTTCAATGGA (double strand) [recA fragment (PrecA)]” the binding was “no binding”.

In the case of “GCGCACATTGCTGATCAGTTGCGTGCGATCCACTCTCGACTCCCCTGCCCTGCGTATGGCGCCCGTGGGTGGGCGCCGAACAAACTTTTGACGCCGGAATGCGCGTCGGGCGGGTCATTGCAGGAACCGTTCCAACTTTTCAATTCATTGATTGAAAAGGGTTTTCGCCAA (double strand) [PflhA]”, the binding is reported as “no binding”.

“GGTGATTTCCTCCAAAGGACCTATTTCGGTTACCTGAGCTTGCGATCTCTCGGCCTGCTTGCTCAGGTGCCCCAAGAATTCGCGTTCATGGTGTTTATCGGCGTTTCCCGGCGGAGCTTTAGAGAAAAAATCAACATTTTCTTTTTCTCTTCCTCTTCAGTGGGTTACATGCTTCGAAGAGGACTCGCCAATATCGGTCCTGAA (double strand) [PfliC]” was tested, and the binding was “no binding”.

In the case of “GTTCCAGGGGCTTGCCACCCTTGCCGGCAAGCGGAAGCGGCTTGCCGCTTGCCGCTTCCGGGTTACCCTTAAATAAACTCAAGTTATTGAATATAAAGGTTTTTAATAATTTGGCACGGGCCTTGCTGAAGTGTTGGCGACGAAAGCCACACCGGCAAACAGGTTCGCAGCCATGAGCATCAGTTTCGA (double strand) [PflgB]”, the binding is reported as “binds”.

“TACACAGTGTCCTGTTCGAAACCCGCGCCTGACGCGCGGGTTGAACGACTTGGCATGGTGCTTGCCCTATCGAAGGGATAGGGCAGTACATGCACGGTTTTTTGACGGAGATGGATTATGGCCGGTATCTCGATAGGAGTA (double strand) [PfliD]” was tested, and the binding was “no binding”.

With “TCATGGGTGTCGGGCTCGGTGTCGGCGAGGCGGCGAACTGGCTTTTCGAGTATTCGGACTATAGTCTTGCGGCTAGCAACCGATAACAAGAGGGAGCCTAGCAGTCCCCCTCCTTATCCTGTTCATTTCGCACGTCCGGTCCTCATGTCAAAAATCATCGGC (double strand) [PmotA]” the binding was “no binding”.

In the case of “TTTCTTAGCCATGCCAAAAATCCGTCGCTATAGCGTCAAATGAAGGGTTTCACAGGGGCAGAGCAAGGGTTGTGCCATTTCTGCAACGCCGCCCCGCCTCCTGGGACCAGCCCCGGAGGGCTGTCCGAGATGATAGACGGCGCGGATATTACAGCCTGGCCACAGGAAATCATCCCCGTCTTTTGCGAAATTGCC (double strand) [PPA1442]”, the binding is reported as “binds”.
